According to patent US20220017630A1 (JIANGSU SIMCERE PHARMACEUTICAL, published 2022):
Numbering of substitutions follows the chain as printed. Values belong to the binder of their own block, whether it stands above or below them.

How the values were obtained:
[1] = target: T1, human TNFR2 on the cell surface (CHO-TNFR2 cells; human Treg cells) (human, UniProt P20333 23-461); assay: flow cytometry competition on CHO-TNFR2 cells: antibody first, then human TNFα-biotin, PE-streptavidin; MFI of bound TNFα-biotin [label on D00006), panel #133, table under the plot]
T1 construct: whole, on cells; The assay field of each row says which cells; also called TNFR2-CHO cell; TNFR2 on Treg cells
T1 sequence (looked up): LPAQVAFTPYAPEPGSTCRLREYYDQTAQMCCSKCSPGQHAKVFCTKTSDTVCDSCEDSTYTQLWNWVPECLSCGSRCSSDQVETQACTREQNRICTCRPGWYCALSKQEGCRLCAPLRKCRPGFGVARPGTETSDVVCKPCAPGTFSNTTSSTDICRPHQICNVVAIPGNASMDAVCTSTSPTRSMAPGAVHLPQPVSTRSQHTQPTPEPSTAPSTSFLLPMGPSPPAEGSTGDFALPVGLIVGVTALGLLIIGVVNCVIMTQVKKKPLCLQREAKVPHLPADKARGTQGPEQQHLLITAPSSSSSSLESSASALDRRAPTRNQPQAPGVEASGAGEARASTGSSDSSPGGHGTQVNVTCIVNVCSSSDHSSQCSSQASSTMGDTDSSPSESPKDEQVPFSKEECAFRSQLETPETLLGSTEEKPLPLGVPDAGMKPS
Experimental: (§1) CHO cells that stably overexpressed human TNFR2 were used for experiments. The cells were resuscitated and passaged until in good state, and the expression level of human TNFR2 on the cells was assessed by FACS. Compared to the isotype control, the assay could be carried out when the fold change of mean fluorescence intensity (MFI) was more than 100 times.
(§2) CHO-TNFR2 cells were digested, washed twice with DPBS and stained with Live/Dead (L/D) at room temperature for 20 min, and then seeded at 1×10⁵ cells/50 μl/well. […] The diluted antibodies were added 50 μl/well into wells pre-seeded with cells, and gently blown and mixed to make the final concentrations of the antibodies to 20, 6.67, 2.22, 0.74, 0.247, 0.08, 0.027 and 0 nM, respectively followed by incubation at 4° C. for 30 min. […] After washing twice with the staining buffer, 100 μl/well of PE-streptavidin was added and incubated at 4° C. for 30 min. After additional washing with the staining buffer twice, 150 μl resuspended cells was analyzed using an flow cytometry. Taking the logarithmic value of the antibody concentrations as abscissa and the corresponding MFI value as ordinate, the inhibition curve of the antibody was drawn, and the IC50 value was calculated by four parameters fitting.

[2] = target: T1, human TNFR2 on the cell surface …; assay: flow cytometry competition on CHO-TNFR2 cells: antibody first, then human TNFα-biotin, PE-streptavidin; MFI of bound TNFα-biotin [label on D00006), panel #224 (printed twice, bottom left and bottom right), table under the plot]
Experimental: as §1, §2

[3] = target: T1, human TNFR2 on the cell surface …; assay: flow cytometry competition on CHO-TNFR2 cells: antibody first, then human TNFα-biotin, PE-streptavidin; MFI of bound TNFα-biotin [label on D00006), panel #125, table under the plot]
Experimental: as §1, §2

[4] = target: T1, human TNFR2 on the cell surface …; assay: flow cytometry competition on CHO-TNFR2 cells: antibody first, then human TNFα-biotin, PE-streptavidin; MFI of bound TNFα-biotin [label on D00006), panel #001, table under the plot]
Experimental: as §1, §2

[5] = target: T1, human TNFR2 on the cell surface …; assay: flow cytometry competition on CHO-TNFR2 cells: antibody first, then human TNFα-biotin, PE-streptavidin; MFI of bound TNFα-biotin [label on D00006), panel #088, table under the plot]
Experimental: as §1, §2

[6] = target: T1, human TNFR2 on the cell surface …; assay: flow cytometry competition on CHO-TNFR2 cells: antibody first, then human TNFα-biotin, PE-streptavidin; MFI of bound TNFα-biotin [panel #226, table under the plot]
Experimental: as §1, §2

[7] = target: T1, human TNFR2 on the cell surface …; assay: flow cytometry competition on CHO-TNFR2 cells: antibody first, then human TNFα-biotin, PE-streptavidin; MFI of bound TNFα-biotin [panel #352, table under the plot]
Experimental: as §1, §2

[8] = target: T1, human TNFR2 on the cell surface …; assay: flow cytometry competition on CHO-TNFR2 cells: antibody first, then human TNFα-biotin, PE-streptavidin; MFI of bound TNFα-biotin [panel #365, table under the plot]
Experimental: as §1, §2

[9] = target: T1, human TNFR2 on the cell surface …; assay: flow cytometry competition on CHO-TNFR2 cells: antibody first, then human TNFα-biotin, PE-streptavidin; MFI of bound TNFα-biotin [panel #395, table under the plot]
Experimental: as §1, §2

[10] = target: T1, human TNFR2 on the cell surface …; assay: flow cytometry competition on CHO-TNFR2 cells: antibody first, then human TNFα-biotin, PE-streptavidin; MFI of bound TNFα-biotin [panel #309, table under the plot]
Experimental: as §1, §2

IC50 [1]: 0.04 µg/mL
B1: TNFR2 antibody #133 (antibody, V domains shown)
VH: EVQLQESGAELVRSGASVKLSCTASGFNIKDYYIQWVKQRPEQGLEWIGWIDPESGNTKYAPKFQDKATMTADTSSNTAYLQLSGLTSEDSAVYYCNAYYDYDGSMDYWGQGTTVTVSS
VL: DIVMTQSPLSLPVSLGDQASISCRSSQSLVHSNGNTYLHWYLQKPGQSPKLLIYKVSNRFSGVPDRFSGSGSGTDFTLKISRVETDDLGVYFCSQSTHVPTWTFGGGTKLEIK

IC50 [2]: 0.128 µg/mL
B2: TNFR2 antibody #224 (antibody, V domains shown)
VH: EVQLQESGPEIVKPGASVKLSCTASGFNNKDIYMHWVKQRPEQGLEWIGRIDPATGNTKHDPKFQDKATLSSDTSSNTAYLQFSSLTSEDTAVYYCAHSPYGDFGAMDYWGQGTTVTVSS
VL: DIQMTQSPAIMSASLGERVTMTCTASSSVSSNYLHWYQQKPGSSPKLWIYSTSNLPSGVPARFSGSGSGTSYSLTISSMEAEDAATYYCHQYHRSPWTFGGGTKLEIK

IC50 [3]: 0.109 µg/mL
B3: TNFR2 antibody #125 (antibody, V domains shown)
VH: EVQLQESGGGLVQPGGSLNLSCAASGFAFSIYDLSWVRQTPEKRLEWVAYINNGGISTYYSDTVKGRFTISRDNAKNTLYLQMSSLKSEDTAMYYCVRGPFYGSANYFDYWGQGTTVTVSS
VL: DIQMTQSPASLSLSVGETVTITCRASENIYSNLAWYQQKQGKSPQLLVYDATKLAEGVPSRFSGSESGTQYSLKINSLQSEDFGTYYCQHFWVTPWTFGGGTKLEIK

IC50 [4]: 0.14 µg/mL
B4: TNFR2 antibody #001 (antibody, V domains shown)
VH: B3 VH with I31T
VL: B3 VL with D1E, Q3V, A25T, N28S, A34P
notes: also called antibody #1

IC50 [5]: 0.185 µg/mL
B5: TNFR2 antibody #088 (antibody, V domains shown)
VH: B3 VH with I31T, E42G, S71T
VL: B3 VL with Q3L, S14F

IC50 [6]: 0.06 µg/mL
B6: TNFR2 antibody #226 (antibody, V domains shown)
VH: EVQLQESGAELVRPGASVKLSCKASGYSFTNYWMNWVKQRPGQGLEWIGMIHPSDSETRLNQKFKDKATLTVDKSSSTAYMQLSSPTSEDSAVYYCARGEGLGAARSVSMDYWGQGTTVTVSS
VL: DIQMTQSPSSLSASLGDRVTISCRASQDISNYLNWYQQKPDGTVKVLIYYTALLHSGVPSRFSGSGSGTDYSLTISNLEQEDIATYFCQQGNTLPWTFGGGTKLEIK

IC50 [7]: 0.056 µg/mL
B7: TNFR2 antibody #352 (antibody, V domains shown)
VH: EVQLQESGPGLVAPSQSLSITCTVSGFSLTSYGVHWVRQPPGKGLEWLVVIWSDGGTTYNSALKSRLSISKDNSKSQVFLKMNSLQTDDTAMYYCARHDDDGYYAMDYWGQGTTVTVSS
VL: DIVLTQSPSLMSASPGEKVTMTCSASSSVGYMYWYQQKPRSSPKPWIYLTSNLASGVPARFSGSGSGTSYSLTISSMEVEDAATYYCQQWSSDPFTFGSGTKLEIK

IC50 [8]: 0.041 µg/mL
B8: TNFR2 antibody #365 (antibody, V domains shown)
VH: EVQLQESGPGLVQPSQSLSITCTVSGFSLTSYGVHWVRQSPGKGLEWLGLIWSDGSPDYSAAFISRLSINKDNSKSQVFFKMNSLQADDTAIYYCARNDDGGDYVMDYWGQGTTVTVSS
VL: B7 VL with D1E, S9A, G30S, V79A, S91T, D93N, F95L, S99A

IC50 [9]: 0.021 µg/mL
B9: TNFR2 antibody #395 (antibody, V domains shown)
VH: B8 VH with G10V, G33S, L50V, S56G, P57T, N70S, V105A
VL: B7 VL with D1E, S9A, G30S, V79A, D93N, F95L, S99A

IC50 [10]: 0.116 µg/mL
B10: TNFR2 antibody #309 (antibody, V domains shown)
VH: EVQLQESGAELVKPGASVKLSCKASGYTFTSYWIHWVKLRPGQGFEWIGEINPNNGGTDYNEKFKRKATLTVDKSSSTAYMELSSLTSEDSAIYYCTIDSMITTTWFAYWGQGTTVTVSS
VL: EIVMTQSQKLMSTVVGDRVSVTCKASQNVGTNVAWFQQKPGQSPKALINSASYRYSGVPDRFTGSGSGTDFTLTISSVQSEDLAEYFCQQYNSYPFTFGSGTKLEIK
